Starred links: 1 amine or outer side, 2 acyl side, 3 side chain; linkers in the order of their positions; H or OH if unused. Positions of bridges follow the written chain, without caps; N, C: chain ends. Non-standard residues stand in square brackets, D forms with d. Primed or numbered codes have the meaning given here. *: point of attachment. PyrS2(3) = (S)-3-amino-1-((pent-4-en-1-yloxy)carbonyl)pyrrolidine-3-carboxylic acid, stapling residue, C=CCCCOC(=O)N1CC[C@@](N[*:1])(C(=O)[*:2])C1; PyrS2″ = (S)-3-amino-1-((pent-4-en-1-yloxy)carbonyl)pyrrolidine-3-carboxylic acid (stapling residue), C=CCCCOC(=O)N1CC[C@@](N[*:1])(C(=O)[*:2])C1; B5(4) = 2,2-bis(4-pentenyl)glycine = 2-amino-2-(pent-4-en-1-yl)hept-6-enoic acid (stitching residue), C=CCCCC(CCCC=C)(N[*:1])C(=O)[*:2]; B5(5) = 2,2-bis(4-pentenyl)glycine, 2-amino-2-(pent-4-en-1-yl)hept-6-enoic acid (stitching residue), C=CCCCC(CCCC=C)(N[*:1])C(=O)[*:2]; TfeGA = (S)-2-amino-3-((carboxymethyl)(2,2,2-trifluoroethyl)amino)propanoic acid, O=C([C@H](CN(CC(=O)[*:3])CC(F)(F)F)N[*:1])[*:2]; B5(3) = 2,2-bis(4-pentenyl)glycine (stitching residue), C=CCCCC(CCCC=C)(N[*:1])C(=O)[*:2]; B5″ = 2,2-bis(4-pentenyl)glycine, stitching residue, C=CCCCC(CCCC=C)(N[*:1])C(=O)[*:2]; B5 = 2-amino-2-(pent-4-en-1-yl)hept-6-enoic acid, C=CCCCC(CCCC=C)(N[*:1])C(=O)[*:2]; Phe(2-Cl) = N[C@@H](Cc1ccccc1Cl)C(=O)O; Phe(2-OMe) = COc1ccccc1C[C@H](N)C(=O)O; 1Nal = N[C@@H](Cc1cccc2ccccc12)C(=O)O; 2Nal = N[C@@H](Cc1ccc2ccccc2c1)C(=O)O; Phe(2-F) = N[C@@H](Cc1ccccc1F)C(=O)O; Bta = N[C@@H](Cc1csc2ccccc12)C(=O)O; αAllylPro = C=CC[C@@]1(C(=O)O)CCCN1; tBuAla = CC(C)(C)C[C@H](N)C(=O)O; 3Thi = N[C@@H](Cc1ccsc1)C(=O)O; Cha = N[C@@H](CC1CCCCC1)C(=O)O; S8 = C=CCCCCCC[C@](C)(N)C(=O)O; Leu(ol) = CC(C)C[C@H](N)CO; Prolinol = OC[C@@H]1CCCN1*; hSer = N[C@@H](CCO)C(=O)O

One experiment deals with full-length beta-Catenin (Uniprot ID P35222) (Homo sapiens (Human)) (UniProt P35222). Description: FP competition: displacement of 5FAM-TCF4(10-53) from full-length beta-catenin.
Target sequence in this assay (P35222 whole entry): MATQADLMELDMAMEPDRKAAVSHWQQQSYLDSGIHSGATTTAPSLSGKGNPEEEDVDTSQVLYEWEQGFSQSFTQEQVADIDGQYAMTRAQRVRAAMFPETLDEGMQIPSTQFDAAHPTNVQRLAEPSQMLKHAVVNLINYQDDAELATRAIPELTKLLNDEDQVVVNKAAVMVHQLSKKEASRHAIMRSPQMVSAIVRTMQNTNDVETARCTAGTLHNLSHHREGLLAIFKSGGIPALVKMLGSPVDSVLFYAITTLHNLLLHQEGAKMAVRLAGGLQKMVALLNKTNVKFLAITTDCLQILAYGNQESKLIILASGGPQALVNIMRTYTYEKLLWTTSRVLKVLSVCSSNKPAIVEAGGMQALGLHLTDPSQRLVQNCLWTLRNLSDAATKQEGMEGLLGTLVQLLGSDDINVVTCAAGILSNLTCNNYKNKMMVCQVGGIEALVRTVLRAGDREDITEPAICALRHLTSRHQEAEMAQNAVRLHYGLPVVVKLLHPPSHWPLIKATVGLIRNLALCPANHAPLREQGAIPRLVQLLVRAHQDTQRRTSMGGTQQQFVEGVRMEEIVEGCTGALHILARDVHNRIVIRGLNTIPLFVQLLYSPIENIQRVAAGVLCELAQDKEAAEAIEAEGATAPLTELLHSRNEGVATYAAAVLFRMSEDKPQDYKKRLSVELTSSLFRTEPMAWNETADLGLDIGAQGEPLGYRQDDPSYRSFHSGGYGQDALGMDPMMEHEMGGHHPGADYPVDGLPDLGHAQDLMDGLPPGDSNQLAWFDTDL
The molecule Ac-[αAllylPro]D[tBuAla][B5″]NDAAFL[PyrS2(3)][3Thi][Bta]Q-NH2 (staple 1-4, 4-11) [I-1207] showed an EC50 of 40 nM.
In turn, Ac-[αAllylPro]D[tBuAla][B5″]NDAAFN[PyrS2(3)][3Thi][Bta]Q-NH2 (staple 1-4, 4-11) [I-1206] registered an EC50 of 32 nM.
Same read-out and setting: under Ac-[αAllylPro][hSer][tBuAla][B5(5)]DDAAFL[PyrS2″][3Thi][Bta]Q-NH2 (staple 1-4, 4-11) [I-1229] stands 134 nM.
Still for that read-out and setting: as for Ac-[αAllylPro]D[tBuAla][B5(5)]QDAAFL[PyrS2″][3Thi][Bta]Q-NH2 (staple 1-4, 4-11) [I-1211], the figure is 115 nM; as for Ac-[αAllylPro]Q[tBuAla][B5(5)]DDAAFN[PyrS2″][3Thi][Bta]Q-NH2 (staple 1-4, 4-11) [I-1224], 389 nM.
On the same count and under the same terms, under Ac-[αAllylPro]D[tBuAla][B5(5)][hSer]DAAFL[PyrS2″][3Thi][Bta]Q-NH2 (staple 1-4, 4-11) [I-1215] stands 216 nM; under Ac-[αAllylPro]D[tBuAla][B5(4)]D[TfeGA]AAFT[PyrS2″][Phe(2-Cl)][Bta][Leu(ol)] (staple 1-4, 4-11) [I-1243], 82 nM.
Ac-[αAllylPro]D[tBuAla][B5(5)]LDAAFN[PyrS2″][3Thi][Bta]Q-NH2 (staple 1-4, 4-11) [I-1212] came in with an EC50 of 8660 nM.
The same measure, in the same setting: under Ac-[αAllylPro]S[tBuAla][B5(5)]DDAAFL[PyrS2″][3Thi][Bta]Q-NH2 (staple 1-4, 4-11) [I-1223] stands 550 nM; under Ac-[αAllylPro]D[tBuAla][B5(5)]SDAAFN[PyrS2″][3Thi][Bta]Q-NH2 (staple 1-4, 4-11) [I-1208], 349 nM.
Same read-out and setting: under Ac-[αAllylPro]L[tBuAla][B5(5)]DDAAFN[PyrS2″][3Thi][Bta]Q-NH2 (staple 1-4, 4-11) [I-1226] stands 559 nM.
The molecule Ac-[αAllylPro][hSer][tBuAla][B5(5)]DDAAFN[PyrS2″][3Thi][Bta]Q-NH2 (staple 1-4, 4-11) [I-1228] registered an EC50 of 100 nM.
Same read-out and setting: as for Ac-[αAllylPro]D[tBuAla][B5(5)][hSer]DAAFN[PyrS2″][3Thi][Bta]Q-NH2 (staple 1-4, 4-11) [I-1214], the figure is 116 nM.
Same read-out and setting: under Ac-[αAllylPro]S[tBuAla][B5(5)]DDAAFN[PyrS2″][3Thi][Bta]Q-NH2 (staple 1-4, 4-11) [I-1222] stands 511 nM; under Ac-[αAllylPro]Q[tBuAla][B5(5)]DDAAFL[PyrS2″][3Thi][Bta]Q-NH2 (staple 1-4, 4-11) [I-1225], 305 nM; under Ac-[αAllylPro]D[tBuAla][B5(5)]SDAAFL[PyrS2″][3Thi][Bta]Q-NH2 (staple 1-4, 4-11) [I-1209], 479 nM.
On the same count and under the same terms, as for Ac-[αAllylPro]N[tBuAla][B5(4)]DDAAFL[PyrS2″][3Thi][Bta]Q-NH2 (staple 1-4, 4-11) [I-1221], the figure is 14 nM; as for Ac-[αAllylPro]D[tBuAla][B5(5)]QDAAFN[PyrS2″][3Thi][Bta]Q-NH2 (staple 1-4, 4-11) [I-1210], 56 nM.

The next experiment shares this target. The experiment can be described thus: fluorescence polarization competition; displacement of 5FAM-TCF4(10-53) from full-length beta-catenin.
Target sequence in this assay (P35222 whole entry): as above
Turning to Ac-[αAllylPro]D[tBuAla][B5(5)]DDAAFS[PyrS2″][Phe(2-OMe)][Bta]S-NH2 (staple 1-4, 4-11) [I-1103], the half-inhibitory concentration (IC50) turned out to be 15 nM.
Same read-out and setting: as for Ac-[αAllylPro]D[tBuAla][B5(5)]DDAAFS[PyrS2″][Phe(2-F)][Bta]S-NH2 (staple 1-4, 4-11) [I-1101], the figure is 14 nM; as for Ac-[αAllylPro]D[Cha][B5(5)]DDAAF[Cha][PyrS2″][Phe(2-Cl)][Bta]Q-NH2 (staple 1-4, 4-11) [I-1107], 18 nM.
On the same count and under the same terms, under Ac-[αAllylPro]D[Cha][B5(5)]DDAAFS[PyrS2″][Phe(2-F)][Bta]S-NH2 (staple 1-4, 4-11) [I-1102] stands 16 nM; under Ac-[αAllylPro]D[Cha][B5(5)]DDAAFL[PyrS2″][Phe(2-Cl)][Bta]S-NH2 (staple 1-4, 4-11) [I-1112], 40 nM; under Ac-[αAllylPro]D[2Nal][B5(5)]DDAAFS[PyrS2″][Phe(2-Cl)][Bta]Q-NH2 (staple 1-4, 4-11) [I-1109], 24 nM.
Same read-out and setting: under Ac-[αAllylPro]D[1Nal][B5(5)]DDAAFS[PyrS2″][Phe(2-Cl)][Bta]Q-NH2 (staple 1-4, 4-11) [I-1108] stands 18 nM.
Ac-[αAllylPro]D[Cha][B5(5)]DDAAFS[PyrS2″][Phe(2-OMe)][Bta]S-NH2 (staple 1-4, 4-11) [I-1104]: the IC50 is 10 nM.

For another experiment the target is unchanged. Description: fluorescence polarization competition; full-length beta-catenin, 5FAM-TCF4(10-53) probe as competitor.
Target sequence in this assay (P35222 2-781 limits assumed): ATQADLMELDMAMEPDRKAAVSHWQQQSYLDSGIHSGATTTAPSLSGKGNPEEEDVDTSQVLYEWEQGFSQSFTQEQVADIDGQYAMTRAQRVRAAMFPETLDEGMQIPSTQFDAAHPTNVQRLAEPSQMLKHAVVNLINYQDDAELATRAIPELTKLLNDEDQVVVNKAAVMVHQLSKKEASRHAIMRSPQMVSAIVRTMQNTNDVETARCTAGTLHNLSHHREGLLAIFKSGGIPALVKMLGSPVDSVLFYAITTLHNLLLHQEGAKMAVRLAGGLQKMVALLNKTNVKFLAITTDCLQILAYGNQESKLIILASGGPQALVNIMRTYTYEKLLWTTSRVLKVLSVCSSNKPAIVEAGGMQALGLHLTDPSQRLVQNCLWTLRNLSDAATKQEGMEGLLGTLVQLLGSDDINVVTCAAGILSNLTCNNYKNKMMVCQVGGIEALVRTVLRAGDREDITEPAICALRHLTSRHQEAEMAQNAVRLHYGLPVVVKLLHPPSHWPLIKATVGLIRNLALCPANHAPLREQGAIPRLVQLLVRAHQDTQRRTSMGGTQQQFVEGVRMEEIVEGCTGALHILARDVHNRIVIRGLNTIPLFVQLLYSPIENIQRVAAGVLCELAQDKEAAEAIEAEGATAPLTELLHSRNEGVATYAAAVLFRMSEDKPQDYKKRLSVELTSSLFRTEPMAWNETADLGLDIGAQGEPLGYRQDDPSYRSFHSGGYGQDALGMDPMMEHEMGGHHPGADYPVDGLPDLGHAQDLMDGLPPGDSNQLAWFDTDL
As for Ac-[αAllylPro][hSer][tBuAla][B5(5)]DDAAFL[PyrS2″][3Thi][Bta]Q-NH2 (staple 1-4, 4-11) [I-1229], the IC50 is 134 nM.
On the same count and under the same terms, under Ac-[αAllylPro]D[tBuAla][B5(4)]D[TfeGA]AAFT[PyrS2″][Phe(2-Cl)][Bta][Leu(ol)] (staple 1-4, 4-11) [I-1243] stands 82 nM.
Molecule Ac-[αAllylPro]L[tBuAla][B5(5)]DDAAFN[PyrS2″][3Thi][Bta]Q-NH2 (staple 1-4, 4-11) [I-1226] gave an IC50 of 559 nM.
Still for that read-out and setting: under Ac-[αAllylPro][hSer][tBuAla][B5(5)]DDAAFN[PyrS2″][3Thi][Bta]Q-NH2 (staple 1-4, 4-11) [I-1228] stands 100 nM.

The next experiment shares this target. The experiment can be described thus: fluorescence polarization competition; full-length beta-catenin + 5FAM-TCF4(10-53) probe as competitor.
Target sequence in this assay (P35222 2-781 limits assumed): as above
On to Ac-[αAllylPro]D[tBuAla][B5(5)]DDAAFS[PyrS2″][Phe(2-OMe)][Bta]S-NH2 (staple 1-4, 4-11) [I-1103], for which the EC50 turned out to be 15 nM.
The same measure, in the same setting: under Ac-[αAllylPro]D[tBuAla][B5(5)]DDAAFS[PyrS2″][Phe(2-F)][Bta]S-NH2 (staple 1-4, 4-11) [I-1101] stands 14 nM; under Ac-[αAllylPro]D[tBuAla][B5(3)]DEAAFT[S8][Phe(2-Cl)][Bta]T-NH2 (staple 1-4, 4-11) [I-1091], 27 nM; under Ac-[αAllylPro]D[tBuAla][B5(3)]DDAAFT[S8][Phe(2-Cl)][Bta]T-NH2 (staple 1-4, 4-11) [I-1090], 18 nM.
Same read-out and setting: under Ac-[αAllylPro]D[Cha][B5(5)]DDAAF[Cha][PyrS2″][Phe(2-Cl)][Bta]Q-NH2 (staple 1-4, 4-11) [I-1107] stands 18 nM; under Ac-[αAllylPro]D[Cha][B5(5)]DDAAFS[PyrS2″][Phe(2-F)][Bta]S-NH2 (staple 1-4, 4-11) [I-1102], 16 nM.
Ac-[αAllylPro]D[tBuAla][B5(3)]DDAAFT[S8][Phe(2-Cl)][Bta][dT]-NH2 (staple 1-4, 4-11) [I-1092]: the EC50 came out at 26 nM.
On the same count and under the same terms, as for Ac-[αAllylPro]D[Cha][B5(5)]DDAAFL[PyrS2″][Phe(2-Cl)][Bta]S-NH2 (staple 1-4, 4-11) [I-1112], the figure is 40 nM; as for Ac-[αAllylPro]D[tBuAla][B5(4)]DDAAFN[PyrS2″][Phe(2-Cl)][Bta]-Prolinol (staple 1-4, 4-11) [I-1084], 368 nM.
On the same count and under the same terms, as for Ac-[αAllylPro]D[tBuAla][B5(3)]DDAAFT[S8][Phe(2-Cl)][Bta]Q-NH2 (staple 1-4, 4-11; also: earlier eluting staple isomer) [I-1086], the figure is 12 nM; as for Ac-[αAllylPro]D[2Nal][B5(5)]DDAAFS[PyrS2″][Phe(2-Cl)][Bta]Q-NH2 (staple 1-4, 4-11) [I-1109], 24 nM; as for Ac-[αAllylPro]D[1Nal][B5(5)]DDAAFS[PyrS2″][Phe(2-Cl)][Bta]Q-NH2 (staple 1-4, 4-11) [I-1108], 18 nM.
The same measure, in the same setting: as for Ac-[αAllylPro]D[tBuAla][B5(3)]DEAAFT[S8][Phe(2-Cl)][Bta]Q-NH2 (staple 1-4, 4-11; also: earlier eluting staple isomer) [I-1088], the figure is 22 nM; as for Ac-[αAllylPro]D[tBuAla][B5(3)]DEAAFT[S8][Phe(2-Cl)][Bta]Q-NH2 (staple 1-4, 4-11; also: later eluting staple isomer) [I-1089], 12 nM.
In the case of Ac-[αAllylPro]D[Cha][B5(5)]DDAAFS[PyrS2″][Phe(2-OMe)][Bta]S-NH2 (staple 1-4, 4-11) [I-1104], the EC50 is 10 nM.

Another experiment shares this target. Description: fluorescence polarization competition; full-length beta-catenin with 5FAM-TCF4(10-53) probe as competitor.
Target sequence in this assay (P35222 whole entry): as the sequence (P35222 whole entry) above
In turn, Ac-[αAllylPro]D[Cha][B5]DEAAFN[S8]F[Bta]H-NH2 (staple 1-4, 4-11) [I-615] came in with an IC50 of 50 nM.

A further experiment shares this target. Description: fluorescence polarization competition; peptide titrated against 10 nM full-length beta-catenin + 10 nM 5FAM-TCF4(10-53).
Target sequence in this assay (P35222 2-781 limits assumed): as the sequence (P35222 2-781 limits assumed) above
As to Ac-[αAllylPro]D[tBuAla][B5(3)]DEAAFT[S8][Phe(2-Cl)][Bta]T-NH2 (staple 1-4, 4-11) [I-1091], the IC50 came to 27 nM.
On the same count and under the same terms, under Ac-[αAllylPro]D[tBuAla][B5(3)]DDAAFT[S8][Phe(2-Cl)][Bta]T-NH2 (staple 1-4, 4-11) [I-1090] stands 18 nM.
On to Ac-[αAllylPro]D[tBuAla][B5(3)]DDAAFT[S8][Phe(2-Cl)][Bta][dT]-NH2 (staple 1-4, 4-11) [I-1092], for which the IC50 was 26 nM.
On the same count and under the same terms, as for Ac-[αAllylPro]D[tBuAla][B5(4)]DDAAFN[PyrS2″][Phe(2-Cl)][Bta]-Prolinol (staple 1-4, 4-11) [I-1084], the figure is 368 nM.
Same read-out and setting: as for Ac-[αAllylPro]D[tBuAla][B5(3)]DDAAFT[S8][Phe(2-Cl)][Bta]Q-NH2 (staple 1-4, 4-11; also: earlier eluting staple isomer) [I-1086], the figure is 12 nM; as for Ac-[αAllylPro]D[tBuAla][B5(3)]DEAAFT[S8][Phe(2-Cl)][Bta]Q-NH2 (staple 1-4, 4-11; also: earlier eluting staple isomer) [I-1088], 22 nM.
Still for that read-out and setting: under Ac-[αAllylPro]D[tBuAla][B5(3)]DEAAFT[S8][Phe(2-Cl)][Bta]Q-NH2 (staple 1-4, 4-11; also: later eluting staple isomer) [I-1089] stands 12 nM.

A further experiment has the same target. The experiment can be described thus: fluorescence polarization competition; peptide titrated against 10 nM full-length beta-catenin + 10 nM 5FAM-TCF4(10-53) probe.
Target sequence in this assay (P35222 whole entry): as the sequence (P35222 whole entry) above
For Ac-[αAllylPro]D[Cha][B5]DEAAFN[S8]F[Bta]H-NH2 (staple 1-4, 4-11) [I-615], the EC50 is 50 nM.

(Values after US20240116985A1, “STAPLED PEPTIDES AND METHODS THEREOF” (priority 2020, published 2024).)
